Data on one protein can be found in publication PMC4826903 (Science (New York, N.Y.), 2015).

This data set concerns the molecule itself.

As a reminder, the stoichiometry N is the number of molecules, sites or subunits per partner or assembly.

B1: Nsp1•Nup49•Nup57 channel nup hetero-trimer (CNT) (complex, Chaetomium thermophilum)
chain 1: MDEIITRWATDLAKYQKEFKEQAAKVMEWDRLLVENGEKIQKLYTSTYEAERASNEIERQLSNVESQQEELTAWLDRYERELDELYAKQMGSAAGEQAAGPDQERERTYKLAEKLTDQLDEMGKDLAKMIKEINDMSNTLSKGSKPDDPLTQIVRVLNGHLAQLQWIDTNAAALQAKVAAAQKAAGSMGANVPGTETDAAESFYRSYR
chain 2: EALQQEIAKIDEEIQKCIRDKEAVDAFLPAHGEQLAAIPTDVNFVTRKSEGAHNALSSDILAIDQLRELVKQDADNARLSFKAIDNLKLPMQYHQAGLWSKQMGGAGTAGASGASADADGQSNADLISYFSKTADEMEEMMKKFEKTITEIEAHLTGVEAHAMAMQNVAAQSRNAAQGGVDERVYELAAVLREFEESILKVAGVVGGVKEGVTELQLRDFMGHGS
chain 3: YQKPIPEQIKLIVDKWNPNHPNCAFKTYLYNKVDEHTVPLYGPGPNEDPKEWEEALQRKPAPNFIPVLCSGFPSIVARLMLQRRVITEFNNKLHQINASLDAILSRHDLDHTVRAFNARRRHAELSRRCLHLAARVQVLRNRGYALSGDEDELKQKLQQIDKTLNDPAQGSRLEELWSRLIVLRGYAEDLKDQINQAGITESDGLGEEIEAKAKKILEDYDKQLQHLKKQVEEAKKDFEEWEKQHN
Take B1: the “stoichiometry N” value is 2.
